This is an account of results in US20250326826A1 (CENTRO DE INGENIER A GEN TICA Y BIOTECNOLOG A, published 2025).

Experiment [1] deals with bFGF (soluble stimulus added to cell cultures). Put plainly: cell-based or functional assay.
The target in experiment [2] is VEGF (soluble stimulus added to cell cultures). The experiment in a line: cell-based or functional assay.
Experiment [3] concerns the target T1, Recombinant human bFGF (human, UniProt P09038 143-288, limits assumed).
T1 construct: Bought (Sigma); also called hFGF-2; human basic fibroblast growth factor
The experiment in a line: ELISA, coated human bFGF. The procedure:
(§1) The 96-well plates were coated with 100 μL/well of a solution of GST-hVEGF121, GST-mVEGF120, or GST at a concentration of 20 μg/mL, or with a solution of VEGFKDR- at a concentration of 10 μg/mL, or hFGF-2 or mFGF-2 at a concentration of 5 μg/mL in 1×PBS for 16 hours at 4° C. After the plates were blocked with PBS-5% skim milk for one hour, 1:2 serial dilutions of the purified VHHs were added, starting at 2 μg/mL in PBS-0.5% skim milk. The plates were incubated for 1 hour at 37° C. and after several washes, the monoclonal antibody 9E10, specific for c-myc, was added. After one hour of incubation at 25° C. the plates were washed thoroughly. The binding of the fragment to the antigen in the solid phase was detected by the peroxidase activity using 100 μL/well of TMB. The reaction was stopped with 50 μL/well of stop solution, and absorbance values at 450 nm were determined in a microtiter plate reader.
(§2) Specific binding to bFGF was evaluated as described in the bFGF recognition ELISAs of the Example 1. […] As in the case of Nb-V1, no recognition of GST or VEGF proteins was observed, thus reinforcing the evidence of the specificity of the binding of the Nb-F3 fragment to its antigen.
A general note: In an ELISA, binding on a coated surface is turned into a signal by an enzyme label.

Experiment [4] has as its target T2, Mouse bFGF (mouse, UniProt P15655 10-154, limits assumed).
T2 construct: Bought (SinoBiological); also called mFGF-2
Put plainly: ELISA, coated mouse bFGF. The procedure: as §1, §2

Experiment [5] concerns the target T1, Recombinant human bFGF. Put plainly: competition ELISA, coated bFGF, competitor Fc-FGFR1. The procedure:
(§3) The ability of VHHs to hinder receptors for binding to their ligand was assessed by ELISA, for which 96-well plates (NUNC, USA) were coated with GST-hVEGF or bFGF and blocked as described in the previous section. Serial 1:2 dilutions of the purified VHHs, from […] to […], were added and the plates and incubated for 1 h at 37° C. In this step, some wells were left where only PBS-milk was added. […] After 45 min incubation at 37° C., plates were washed with PBS-0.05% Tween. To detect receptor binding, HRP-conjugated anti-human IgG antibody was added, diluted 1:5000 in PBS-0.5% milk. After incubation for 1 h at 37° C., the plates were washed with PBS-Tween, and TMB was added. The reaction was stopped after 10 min. Wells incubated with the receptors without the addition of the antibody fragments were taken as reference for maximum binding in the absence of competitor. In this assay, in the case of inhibition of the VEGF/VEGFR axis, the CIGB166a antibody fragment was used as a positive control, and an anti-FGF polyclonal antibody was used for the FGF/FGFR axis. The percentage of inhibition of receptor binding to its ligand was calculated as follows: […]

The target in experiment [6] is T1, Recombinant human bFGF. Put plainly: ELISA, coated human bFGF. The procedure:
as §1
SEQ ID NO: 18 and SEQ ID NO: 19, and the bivalent Nb-VV6 and Nb-FF2, with sequences identified as SEQ ID NO: 20 and SEQ ID NO: 21, were expressed and purified as described in the Example 1. In all cases, the purity and identity of the proteins were verified by SDS-PAGE 12% and anti-polyhistidine Western Blot. […] The experimental mass of the polypeptides and the arrangement of the disulfide bridges were checked by ESI/MS-MS. The experimental and theoretical mass, for each polypeptide coincided, with errors less than 0.0015% in all cases, and the formation of intramolecular bridges between C22-C101 and C168-C247 was verified. […] The biological activity of the polypeptides was evaluated by ELISA for recognition of the VEGF and bFGF antigens, and by their ability to displace VEGF and bFGF binding to their respective VEGFR2 and FGFR1 receptors. […] Similarly, it was shown that the ability to displace the binding of antigens by their receptors was not affected.
This is another data set of the same source.

The target in experiment [7] is T3, GST-hVEGF121 (human, UniProt P15692-9 27-147).
T3 construct: plate coating of the VEGF ELISAs; also called human VEGF; not shown: glutathione S-transferase (GST) fusion partner
T3 sequence (looked up): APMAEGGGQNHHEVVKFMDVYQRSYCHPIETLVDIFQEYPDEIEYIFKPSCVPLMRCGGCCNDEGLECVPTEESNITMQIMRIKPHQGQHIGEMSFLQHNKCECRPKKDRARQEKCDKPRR
Put plainly: ELISA, coated antigen. The procedure:
(§4) After one hour of incubation at 25° C. the plates were washed thoroughly. The binding of the fragment to the antigen in the solid phase was detected by the peroxidase activity using 100 μL/well of TMB. The reaction was stopped with 50 μL/well of stop solution, and absorbance values at 450 nm were determined in a microtiter plate reader.
(§5) The main characteristic of an antibody and its derived fragments is their recognition of the antigen, which determines their specificity and affinity. Specific binding to VEGF was evaluated as described in the section “ELISA for VHHs recognition of their target antigen” (Example 1). […] Nb-V1 also recognized a mutated variant of VEGF121 in the ELISA system where, in the so-called 80's loop, amino acids R82, K84 and H86 are replaced by E82, E84 and E86. It shares this property with CIGB166a, but differentiates it from Bevacizumab.
(§6) Specific binding to bFGF was evaluated as described in the bFGF recognition ELISAs of the Example 1.

Experiment [8] addresses T4, GST-mVEGF120 (mouse, UniProt Q00731-3 27-146).
T4 construct: Produced in E. coli; also called mouse VEGF; mouse growth factor; not shown: glutathione S-transferase (GST) fusion partner
T4 sequence (looked up): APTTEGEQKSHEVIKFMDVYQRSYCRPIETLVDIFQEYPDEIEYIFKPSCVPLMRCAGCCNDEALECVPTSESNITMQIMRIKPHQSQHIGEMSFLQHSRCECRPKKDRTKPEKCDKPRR
Put plainly: ELISA, coated GST-mVEGF120. The method, then: as §1
(§7) The main characteristic of an antibody and its derived fragments is their recognition of the antigen, which determines their specificity and affinity. Specific binding to VEGF was evaluated as described in the section “ELISA for VHHs recognition of their target antigen” (Example 1). […] Nb-V1 also recognized a mutated variant of VEGF121 in the ELISA system where, in the so-called 80's loop, amino acids R82, K84 and H86 are replaced by E82, E84 and E86. […]

For experiment [9], the target named is T3, GST-hVEGF121. The experiment in a line: ELISA, coated GST-hVEGF121. The procedure: as §1, §7
Experiment [10] has as its target T5, CHO-VEGF (hVEGF121 produced in the CHO cell line) (human, UniProt P15692-9 27-147).
T5 construct: any tag is not described
T5 sequence (looked up): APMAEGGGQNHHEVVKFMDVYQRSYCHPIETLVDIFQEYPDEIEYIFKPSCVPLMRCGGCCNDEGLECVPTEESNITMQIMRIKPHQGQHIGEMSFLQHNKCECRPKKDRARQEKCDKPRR
Put plainly: competition ELISA, coated CHO hVEGF121, competitor biotinylated Bevacizumab. The method, then: (§8) Their displacement from their binding to VEGF could be an indication of the potentiality of the new polypeptides to mediate the desired effects in vivo. The ability of anti-VEGF VHH to compete with Bevacizumab antibody and CIGB166a antibody fragment for binding to its ligand was assessed by a variation of the solid phase ligand competition ELISA as described. 96-well plates (NUNC, Germany) were coated with 1 μg/mL hVEGF121, produced in the CHO cell line. Serial dilutions of purified VHHs were added, from 15,000 nM to 1,200 nM.
(§9) Biotinylated Bevacizumab or biotinylated-CIGB166a were then added, diluted in blocking solution to a final concentration of 2.3 ng/mL and 14.3 ng/ml, respectively. To detect the binding of biotinylated antibodies, streptavidin conjugated to HRP was added. The wells incubated with Biotinylated Bevacizumab or biotinylated-CIGB166a, without the addition of the antibody fragments, were taken as reference of maximum binding in the absence of competitor. In this assay, the Fc-VEGFR2 receptor chimera was used as a positive control. The percentage of inhibition of the binding of Bevacizumab, CIGB166a or VEGFR2 to its ligand was calculated as described above in the Example 1.

In experiment [11] the target is T3, GST-hVEGF121. The experiment in a line: ELISA, coated GST-hVEGF121, detection with anti-c-myc 9E10. The method, then:
as §1, §7

Experiment [12] has as its target VEGF (soluble stimulus added to cell cultures). The experiment in a line: cell-based or functional assay. The source holds these as a separate data set.
Experiment [13] has as its target T5, CHO-VEGF (hVEGF121 produced in the CHO …). Put plainly: competition ELISA, coated CHO hVEGF121, competitor biotinylated CIGB166a. The procedure: as §8, §9
For experiment [14], the target named is Human VEGF (dendritic cell assay) (human, UniProt P15692-4 27-191, limits assumed). The experiment in a line: cell-based or functional assay.
Experiment [15] deals with T3, GST-hVEGF121. Put plainly: ELISA, coated GST-hVEGF. The procedure:
as §1

The target of experiment [16] is T3, GST-hVEGF121. The experiment in a line: competition ELISA, coated GST-hVEGF, competitor Fc-VEGFR2. The procedure: as §3
The biological effect of VEGF is a consequence of its binding to two fundamental receptors (VEGFR1 and VEGFR2), so for a polypeptide that binds to VEGF to be effective in the therapeutic setting, it must block these interactions (Shibuya, Cell Structure and Function, 2001: 26: 25-35). The ability of Nb-V1 to compete with receptors 1 and 2 for binding to its ligand (VEGF) was assessed by solid phase ligand competition ELISA, as described above.

In experiment [17] the target is T1, Recombinant human bFGF. The experiment in a line: ELISA, coated antigen. The procedure:
as §4, §5, §6

Where only a bound is given, the exact number is not on record here.

T1 sequence (P09038 143-288 limits assumed): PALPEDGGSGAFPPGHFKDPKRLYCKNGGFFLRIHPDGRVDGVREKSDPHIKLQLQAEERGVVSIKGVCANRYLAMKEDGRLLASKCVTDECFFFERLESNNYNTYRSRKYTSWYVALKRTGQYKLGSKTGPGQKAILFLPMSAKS
Sequence of VEGF (soluble stimulus added to cell cultures) (P15692 whole entry): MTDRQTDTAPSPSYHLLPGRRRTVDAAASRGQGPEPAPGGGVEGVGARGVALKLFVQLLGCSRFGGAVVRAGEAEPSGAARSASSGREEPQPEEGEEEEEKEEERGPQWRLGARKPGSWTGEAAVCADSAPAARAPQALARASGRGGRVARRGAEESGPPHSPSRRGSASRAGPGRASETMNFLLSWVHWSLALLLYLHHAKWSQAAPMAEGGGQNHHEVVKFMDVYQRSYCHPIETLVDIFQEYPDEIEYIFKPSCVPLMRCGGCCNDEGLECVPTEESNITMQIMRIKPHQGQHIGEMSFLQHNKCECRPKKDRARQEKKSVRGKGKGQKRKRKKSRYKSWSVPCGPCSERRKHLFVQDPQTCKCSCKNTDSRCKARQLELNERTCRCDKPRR
T2 sequence (P15655 10-154 limits assumed): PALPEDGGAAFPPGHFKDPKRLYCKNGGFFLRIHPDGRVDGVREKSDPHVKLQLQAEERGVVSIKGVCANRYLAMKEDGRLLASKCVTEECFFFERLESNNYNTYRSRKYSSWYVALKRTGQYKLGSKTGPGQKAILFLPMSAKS

B1: Nb-F3 (VHH)
VHH: QVQLVESGGGLVQPGGSLRLSCAASGTEDGRLLTLGGSWFRQAPGQGLEAVAAIGAGDRGGATYYADSVKGRFTISRDNSKNTLYLQMNSLRAEDTAVYYCTALYERQPQLAATKVARKWGQGTLVTVSS
notes: carries the C-terminal c-myc tracer peptide and histidine tag; also called VHH Nb-F3
On to B1, for which, in experiment [1], the “IC50, proliferation of HDMEC cells +bFGF (10 ng/ml)” value worked out at 121 nM. Besides, the “IC50, proliferation of HDMEC cells +VEGF (5 ng/ml)” value in experiment [2] was over 6000 nM. Moreover, the “fold increase in recognition against Nb-A5” value in experiment [3] came to 5 fold. Further, the half-maximal effective concentration (EC50) was 11.5 nM in [4] and 11.3 nM in experiment [6]. Moreover, the half-inhibitory concentration (IC50) in experiment [5] worked out at 134 nM. Besides, the binding result in experiment [7] is “no binding”.

B2: Nb-V1 (VHH)
VHH: QVQLVESGGGLVQPGGSLRLSCAASGNSAEDRLYNSYTWFRQAPGQGLEAVAAISSHFSAGLTYYADSVKGRFTISRDNSKNTLYLQMNSLRAEDTAVYYCEITSHASHNDAWSTPRTVWGQGTLVTVSS
notes: carries the C-terminal c-myc tracer peptide and histidine tag; also called VHH Nb-V1
In the case of B2, the “IC50, proliferation of HDMEC cells +bFGF (10 ng/ml)” value in [1] was over 6000 nM. In [2], the “IC50, proliferation of HDMEC cells +VEGF (5 ng/ml)” value was 116 nM. Also, a half-maximal effect in experiment [8] (EC50) was put at 4.08 nM. Also, the “fold lower EC50 than Nb-E7” value in [9] turned out to be 3 fold. In experiment [10], the half-inhibitory concentration (IC50) worked out at 931 nM. In addition, the half-maximal effective concentration (EC50) in experiment [11] is 4.73 nM. Besides, in experiment [12], the “PD1 expression (%) in CD8+ cells treated with VEGF, VHH 1 µg/mL” value was 64%; the “PD1 expression (%) in CD8+ cells treated with VEGF, VHH 5 µg/mL” value worked out at 58%; the “PD1 expression (%) in CD8+ cells treated with VEGF, VHH 10 µg/mL” value worked out at 38%. In experiment [13], this molecule had an IC50 of 67.5 nM. Further, in experiment [14], the “CD86 (MFI) on dendritic cells +VEGF +LPS, VHH 1 µg/mL” value was found to be 1560 MFI; the “CD86 (MFI) on dendritic cells +VEGF +LPS, VHH 5 µg/mL” value stood at 3000 MFI; the “CD86 (MFI) on dendritic cells +VEGF +LPS, VHH 10 µg/mL” value was 17200 MFI; the “MHCII (MFI) on dendritic cells +VEGF +LPS, VHH 1 µg/mL” value is 4700 MFI. Also, in [14], the “MHCII (MFI) on dendritic cells +VEGF +LPS, VHH 5 µg/mL” value is 5200 MFI and the “MHCII (MFI) on dendritic cells +VEGF +LPS, VHH 10 µg/mL” value amounted to 17000 MFI. Further, in experiment [15], the EC50 was found to be 4.45 nM. In experiment [16], this molecule showed an IC50 of 28.6 nM. For the same molecule, in experiment [17], the binding result is reported as “no binding”.

One may read the EC50 as the concentration needed to bring the measured effect to its halfway point. As usually defined, the IC50 is the point on the concentration scale where inhibition reaches its midpoint.
